Measurements published in the DeepSol protein solubility set.

experiment: soluble on expression in E. coli; label from the status in PepcDB or PDB records

Sequence | soluble on expression in E. coli
MKLKSFGVFGNPIKHSKSPLIHNACFLTFQKELRFLGHYHPILLPLESHIKSEFLHLGLSGANVTLPFKERAFQVCDKIKGIALECGAVNTLVLENDELVGYNTDALGFYLSLKQKNYQNALILGAGGSAKALACELKKQGLQVSVLNRSSRGLDFFQRLGCDCFMEPPKSAFDLIINATSASLHNELPLNKEVLKGYFKEGKLAYDLAYGFLTPFLSLAKELKTPFQDGKDMLIYQAALSFEKFSASQIPYSKAFEVMRSVFLEHHHHHH | soluble
MAFESSKSYYSIGEVSRISGIPAYLLRYWEDYFSELAPARDTRGNRRYTNRDIAMVLNIKDLVYEKGYKLNKASQMVKGGKVDHDGADHKTNEILKLQKQLLREQKEYEITGERRRMLLLEIKDEIEDILELLG | not soluble
MSVLGFDIGNLNCYIGVARQGGIEVITNDYSLHATPACVSFGPKDRSMGVAARQAVTTNIKNTVINFKHLIGRKFSDPVAQRFIPFIPCKVVKLPNDDIGVQVSYLGEPHTFTPEQVLAALLTKLRTIVESQLSDVKKVSDCVLAVPSYFTDVQRRAVLSAIQYAGLNSLRIVNETTAIALAYGIYKQDLPEEDAKSRNVVFLDIGHSSTQASLVAFNRGKLQMVNTSYDLESGGIWFDALIREHFRKEFKTKYGIDAATSPRPWLRLLDECERVKKQMSANQTPIPLNIECFMEDKDVTGKMQRQEFEDLAAPIFNRIKQVLINLFADGVSIKPEEIDEIEIVGGSSRIPMIREIVKDLFGKEPKTTMNQDEAVARGAAMQCAILSPTFRVREFAIKDTQPYRIRLSWNSTGENGGENDVFSPRDEVPFSKLVSLLRSGPFNVEAHYAQPNVVPHNQVHIGSWKVNGARPGADGGNQKVKVKVRVNPDGIFTIASATMYEPRIVEEVPAEAMEVDGDAKTEAPAEPLEPVKKTKLVPVDLEVIESIPVSYDVQKFHNLELQMQESDAREKAKADAKNSLEEYVYEMRDKVSDQYAEFITPAAADEFRSVLTSTEDWLYDEGEDAERDVYEKRLSELKAVGTPVVERYRESETRKPAFDSFDQSIMRVRKAYEDYANGGPTYAHLDSKEMEKVINAIEDKKKWLDEARHKQETRSKTDAPVVFTEEILQNKNVFENVVNPILNKKKPAAPAPPKKEEPQPAAGDQPQSQPGEMDVD | not soluble
MGSDKIHHHHHHMEALRRRIETQVMSLTGLALGQLDLESPKGDPGLFGPHSISWRVHGDFPSMLVGGISALMLQLLHPLALAGVWDHSNFREDLLGRLRRTSQFISGTTFGATGDAEWLIDKVRTIHLQVTGTAPDGRPYAASDPDLLTWVHVAEVSRFLAAHLRYRNPRLPRAEQDAYYNEIALIAERLGARDVPRSCQQVEDYLQHIRPQLHCDARSHEVIRILLDAPAPSRLAQPVGKLMLHAGIDLLPGWAQALLGLQHGPLQQRLIRLGLRRTAPVLRWAMRDGSAHRAKRRMGID | not soluble
MIEIKRIQQQPDLAQAIYAVMAAVYLVSPWTLEQIQADLSQDQTWYALAYDGAEVIGFLAVQENLFEAEVLQIAVKGAYQGQGIASALFAQLPTDKEIFLEVRQSNQRAQAFYKKEKMTVIAERKAYYHDPVEDAIIMKREIDEG | soluble
MSSDGEQDEENPILARHRREKKELRGKILAKKKAAKCGNKQMQKEAGAECEKMEKEMDERHKKELEEAKKPEESEAVPAENPEASTLSPPSPNPEGSDNDGEGPSSSAFYKTVKISNKAAKKQDKKKKTADKMKAAEAADKEAGKNQLSDRQMEKAAVKEMLAEDHMKMIDIPADGDCMYNAISHQLQEEGIEISVRKLRKRCGTYMREHSEDFRPFIEDMANMDSDSSWATYLGGVENVAEIGGVWGGELELKACSMIFEKTIVVYKQYGGRHTIGEEYSSPKDRALRVVFLRHAYSLGEHYNSTCPY | soluble
MGSDKIHHHHHHMIRLGLTSFSEHDYLTGKKRSTLYEYASHLPLVEMDTAYYGIPPKERVAEWVKAVPENFRFVMKVYSGISCQGEWQTYYASEEEMITAFLESMAPLIESKKLFAFLVQFSGTFGCTKENVAYLQKIRHWFKDLPIAIELRNNSWYQPNFVKQMLQFMKENQFSLVIVDEPQIPTNPVPFYPYVTNPNLVLFRFHGRNAAGWLANDAEWRKKRTLYHYNTQEIADLSEAVLKMSQEAKEVGVIFNNNSGGDAAENALQMQKVLNLSYDDLNPKQLDLF | soluble
MSAKQVSKDEEKEALNLFLSTQTIIKEALRKLGYPGDMYELMKEPQRMLTVRIPVKMDNGSVKVFTGYRSQHNDAVGPTKGGVRFHPEVNEEKVKALSIWMTLKCGIANLPYGGGKGGIICDPRTMSFGELERLSRGYVRAISQIVGPTKDIPAPDVYTNSQIMAWMMDEYSRLREFDSPGFITGKPLVLGGSQGRETATAQGVTICIEEAVKKKGIKLQNARIIIQGFGNAGSFLAKFMHDAGAKVIGISDANGGLYNPDGLDIPYLLDKRDSFGMVTNLFTDVITNEELLEKDCDILVPAAISNQITAKNAHNIQASIVVERANGPTTIDATKILNERGVLLVPDILASAGGVTVSYFEWVQNNQGYYWSEEEVAEKLRSVMVSSFETIYQTAATHKVDMRLAAYMTGIRKSAEASRFRGWV | soluble
MPLTPADVHNVAFSKPPIGKRGYNEDEVDAFLDLVEQELSRLIEENADLRQRVGELDKELADAKKAPRSGSAAPTPAPKAEPARVVEQPKAPAPAPAPAAAAAAAPAQGADAHMQAAKVLGLAQEMADRLTSDAKTESEQLLGNARTNSEQLVSDARTRSETMIADARQKSEALITDAQTRSETQLRQAKEKADALQADAEKKHTEIMATINQQRSVLEGRIEQLKTFEREYRVRLKSYLESQLEELEQRGSAVPVDGGQDSFAQGGSQSNYSQSYAKGNS | not soluble
MSLASNVLLQASRLGEMVIKRGGATGLMVHRDTKENNLNVKFKFTSENQERIKAIMDIYPEGHKAGALIPLLDLAQRQHGWLPISAMHEVAKILEVPRMRAYEVATFYTMFNRQPVGKYFLQVCATTPCMLRGAETITETIEKKLGIHAGETTKDGLFTLAEVECLGACVNAPMIQINDDYFEDLTPKDVNEILDDLKAGRKPAAGPRSGRLAAEPFGELTSLKETPPGPGFGLQAALK | not soluble
MGSDKIHHHHHHMRKPGDFLESGMTESVNEKADVMKVPVPNLALGMYVAAIDHQGRVNITNPGQIKDRQAIDKLVRNGIEYVWVDVERSAPECGLRPKQEPEKIIRLTRDQSQEKAKRLMSEAKDLVKKVLSETFEGKAVKVEPFEALADKMLESVMLDADAFKCISALRSKDAYLLEHSINVAFLLVTFGRYLKLKRSVLKQLAVGGILHDIGKVRVNNRILHKPGRLTPEEFEHMKLHQVYAQEILAETEDLSQISRDVCLMHHEKLDGKGYPNGLKGEEISLHGRMSCIVDIFDALTATRCYKEAMSPAAAFKILLSLTPFHLDEKLVYEFIRCVGIYPVGSLVQLSDGRIGIVWEAKDRDALHPVLKTFYSVKHKHYTEVTMVDLLKSDLFIERGVSPSSLDVDPTPFY | not soluble
MKFAVIGGTGLIGSQVVKNLNAAGHEAVPHSQSTGIDVISGQGLDQAVAGADVIVNLTNSPTFDEASPAFFQTSMDNLLAAGRKAGVRHFVILSIVGVDQVPELDYYRAKALQEKILAAGPIPYSIVRATQFMEFIDAVLSWTADGDTVRLPATPIQPIAAKDVADAVAEVAAGAPLGGIRNVAGPEIFSLDELGRITLSHKSDGRTVVTDPTAGMFGAVKGDVLTDKDAHLAPTHYADWLS | not soluble
GERLSMEDAVKLYESDEVEKMGAAANQIMLKWHPEPITTFVIGRNVNYTNFCDTYCRFCAFYRAPGHKEGYVLDDEVILKKIQETIDVGGTEILMQGGTNPDLTIDYYTDLLRNIKERFPNIWMHSFSPAEVWKIAEVSSMSVEEVLRELHEAGLDSMPGGGAEILTEETRLRVSRLKITWEQWINAMKATKKVGMHGTATMVIGFGESFEERALHLQRVRDAQDETECFTAFISWLFQPENTGMYKTKKLTPRDYLKNVAISRLFLDNIPNFQSSWVTMGPEVGKLSLQYGCNDFGSTMIEENVVSAAGTTHKVNTNKILQLIREAGKIPAQR | not soluble
MRGSHHHHHHGSLQVTVRDAINQGMDEELERDEKVFLLGEEVAQYDGAYKVSRGLWKKYGDKRIIDTPISEMGFAGIAVGAAMAGLRPICEFMTFNFSMQAIDQVINSAAKTYYMSGGLQPVPIVFRGPNGASAGVAAQHSQCFAAWYGHCPGLKVVSPWNSEDAKGLIKSAIRDNNPVVVLENELMYGVPFEFPPEAQSKDFLIPIGKAKIERQGTHITVVSHSRPVGHCLEAAAVLSKEGVECEVINMRTIRPMDMETIEASVMKTNHLVTVEGGWPQFGVGAEICARIMEGPAFNFLDAPAVRVTGADVPMPYAKILEDNSIPQVKDIIFAIKKTLNI | soluble
MTMNIAVVSGRIAPELTLPGLNFSRAYAPSTDFRSARLGLLTGQYPQRQPVTRFASLIGTVAEDFSPADVHIIERAEITPDLLDQAHDSGAATFFVGHPTIDDHRVRMSLLWPGVTDTNLPHDTIDGVVTCNELVSTLDIAPTLAAIAGYDVRPNAQLSFDGMNLTPVIRYGATGHGGLFFDDGTVITPTEVRRQANDPEWTMWHQFMNMGPLQ | not soluble
MAHHHHHHMSAHEEEIDMILSMFSDECERYEGTSDSIIVHLPFHFELQVTLPPHGYPDASYPKLYLLSSPNAQLASAFSQAVYRRMRDEISLGIPMLALLIPLAQSVAEELKDLKERAEKARQDEAVERMSELQRKEEHRRETGIAIWSGQAIVDRRSRFVAHMARVHSMDEVREVVGHLRSVKSIACAAHPTIYAYRFTDANGVLQKDSDDDGESGASIKMMFLLDHLQIDGYVVVVTRWWGGILLGPDRFKHIMEVTKNLLLTIPEREKEMAASAKRKSLR | soluble
SCIIFLKFDPRPASKNAYRLILAANRDEVYSRPSKAAEFWGSSSEILSGLDMEEGKEGGSWLGISKRGKLAALTNYLEARQNPDAQGRGFLVSNYLTDNLDSLAYLRKVSSEAHLYNGFNLLTAEFRANEDTLCYYGNKGSSEPIHLKAGIYGLSNSLLETPWRKLQHGKQLFSSVVSKTLPPDGLVQELLHILNNEELNTPDPAQESQGVGYSNAMLRALSAVCVRSPGYGTRTNTVILIDREGNVSFTERTMQNCDITQWSTNSFHFRLQE | soluble
VTTRQEKAAQTRRDLLDAARVVFERNGYLNATITDITTEAGKAAGSFYNHFDGKEALLLALADDIGDDADALITTSPDDLRNLGPHLAVFWQLQSRHRPVMAALRDAALVDPEFAQRMHDFGI | not soluble
GMAYGSSNPEDLAKNFTKDLYSGDTKSVMSYIDLSEAKSDEEKTFVSDKITQVVAENAAKAKRMGGVKDIQIEEKTINKDSAKIRVLVLFNNDNNQSSNVFLAKKDRKWLVLLK | soluble
MGSDKIHHHHHHMQTFPAYSSMQLSLSPTQCQPLKIIALGDSLVYGFGDPDKGGWVEQLRRWWMLPDSSGHVLYNLGVRGDRTQQVAQRLEVEFRHRGELRNRVPDLIILSVGVNDSARLTRLNGRNCTDFALFESEIASLLDQAQQLCPVLFVGMVPVDEAKMPFLNCFYFNHADQYRYKEATRIACNQRQIPYLDIFDQWMARGDAWRNKRLTEDGLHPNTLGYQSLLEDVIHWEHLAGYHTRPDYQLK | not soluble
MEVIKITPRGYCYGVVDAMVIARNAALDPSLPRPIYILGMIVHNKHVTDAFAEEGIITLDGENRLEILEKIDHGTVIFTAHGVSPEVKKRALEKGLVTIDATCPDVTKTHRLIEQKLADGYDIIYIGKKGHPEPEGAVGINPERIHLVETIDDVERLSIHNERIMVTNQTTMSQWDVADIMAKVKEKYPHVEMHKEICLATQLRQEAVAEQAKEADVTIVVGDPRSNNSNRLAQVSEEIAGTKAYRVADVTEIDINWIKDAKKVAVTAGASTPTPITKEVIDFLEQFDPNDPSTWKRERKVPLQKILPKVKTKKEE | not soluble
